Experimental data published in patent US20140370026A1 (TRUSTEES OF PRINCETON UNIVERSITY, published 2014).

B1: human CMV glycoprotein gO (UL74-coded) (other)
chain: KVMSKALYNRPWRGLVLSKIGKYKLDQLKLEILRQLETTISTKYNVSKQPVKNLTMNMTEFPQYYILAGPIQNYSITYLWFDFYSTQLRKPAKYVYSQYNHTAKTITFRPPPCGTVPSMTCLSEMLNVSKRNDTGEQGCGNFTTFNPMFFNVPRWNTKLYVGPTKVNVDSQTIYFLGLTALLLRYAQRNCTHSFYLVNAMSRNLFRVPKYINGTKLKNTMRKLKRKQAPVKEQFEKKAKKTQSTTTPYFSYTTSAALNVTTNVTYSITTAARRVSTSTIAYRPDSSFMKSIMATQLRDLATWVYTTLRYRQNPFCEPSRNRTAVSEFMKNTHVLIRNETPYTIYGTLDMSSLYYNETMFVENKTASDSNKTTPTSPSMGFQRTFIDPLWDYLDSLLFLDEIRNFSLRSPTYVNLTPPEHRRAVNLSTLNSLWWWLQ

Tests used:
human CMV pUL130 = target: T1, human CMV pUL130 (human CMV, UniProt P16772 26-214); experiment: co-immunoprecipitation with anti-gO from radiolabeled infected MRC-5 lysates (FIG. 3A)
T1 construct: also called UL130 protein; 33- to 35-kDa protein

[1] = target: human CMV glycoprotein gH (UL75-coded) (human CMV, UniProt P12824 24-743); experiment: co-immunoprecipitation with anti-gH 14-4b
[2] = target: B1; experiment: co-immunoprecipitation with anti-gO from radiolabeled infected MRC-5 lysates (FIG. 3A)
[3] = target: T2, human CMV glycoprotein gM (UL100-coded) (human CMV, UniProt P16733 1-372); experiment: co-immunoprecipitation with anti-gM IMP91-3/1
T2 sequence: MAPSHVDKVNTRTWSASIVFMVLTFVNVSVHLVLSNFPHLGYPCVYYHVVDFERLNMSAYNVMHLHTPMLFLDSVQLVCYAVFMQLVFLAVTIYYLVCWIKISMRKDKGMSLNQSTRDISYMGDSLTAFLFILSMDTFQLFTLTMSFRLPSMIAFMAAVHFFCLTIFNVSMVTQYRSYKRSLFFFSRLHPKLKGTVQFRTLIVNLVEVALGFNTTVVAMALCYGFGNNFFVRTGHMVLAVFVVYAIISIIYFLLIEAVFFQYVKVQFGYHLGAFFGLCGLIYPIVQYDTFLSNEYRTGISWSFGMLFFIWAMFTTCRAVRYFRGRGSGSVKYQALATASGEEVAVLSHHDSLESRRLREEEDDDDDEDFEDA

Binder: B1
- binding result (human CMV pUL130): no binding
- binding result [1]: binds

B2: human CMV pUL128 (other)
chain: EECCEFINVNHPPERCYDFKMCNRFTVALRCPDGEVCYSPEKTAEIRGIVTTMTHSLTRQVVHNKLTSCNYNPLYLEADGRIRCGKVNDKAQYLLGAAGSVPYRWINLEYDKITRIVGLDQYLESVKKHKRLDVCRAKMGYMLQ
notes: also called UL128 protein; 16-kDa protein
- binding result [2]: no binding

B3: human CMV glycoprotein gN (UL73-coded) (other)
chain: NNSSTSTSATTSKSSASVSTTKLTTVATTSATTTTTTTLSTTSTKLSSTTHDPNVMRRHANDDFYKAHCTSHMYELSLSSFAAWWTMLNALILMGAFCIVLRHCCFQNFTATTTKGY
notes: also called ~60-kDa protein
- binding result [3]: binds
